Data as given in the supplement of paper PMC9170038.

Test system: K4 kissing-loop RNA reporter
Assay: apparent KD of K4 kissing-loop reporter; higher = weaker reporter binding
Details: Eterna round: R107
Description: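 RNA-MaP round R107: designed RNA switches with theophylline, tryptophan, arginine or FMN aptamers are transcribed on-chip within common flanks. They are titrated with a labelled K4 kissing-loop RNA reporter in RNA-MaP buffer (100 mM Tris pH 7.5, 80 mM KCl, 4 mM MgCl2), without ligand or with the indicated ligand. Median apparent KD per design.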

[1] = input ligand: theophylline 20 uM
[2] = input ligand: tryptophan 2.4 mM
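Also: bound reporter read as fluorescence of individual clusters on recovered sequencing chips by microscopy, with normalized cluster intensities fitted with a binding model.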

Row | Sequence | apparent KD of K4 kissing-loop reporter (input ligand: FMN 200 uM) [nM] | apparent KD of K4 kissing-loop reporter (input ligand: arginine 13.2 mM) [nM] | apparent KD of K4 kissing-loop reporter (input ligand: none) [nM] | apparent KD of K4 kissing-loop reporter [1] [nM] | apparent KD of K4 kissing-loop reporter [2] [nM]
1 | CCAGGAUGAUGAGGAUGAUGAAUUACUGAAGGAGCGCAUAUGGUUGCAGGUAGGUCGCGGUGAACAAGUAUAGUGAUGUUAUGCC [SSArgA.W] | 575 | 615 | 795 | 1160 | 545
2 | AAAACUCCGGGUAGUGAUGUUACCUAGGAUACCAGUAUCGCAACAUACCCUUGGCAGCCUCUUCCUGCUGGCGUCGCUUGGCCUA [theeternabot_exclusion_KL_Theo_A_42] | 95.2 | 80.5 | 90.8 | 91.9 | 75.1
3 | UAGUCAUACAGAGGAUAUCGUAUGAGUGAUGUUCAAGUGCGUACAUCAACUUGAUGUACAGAUAGACGAGAAGGCUGUAUGACUA [FMB B SS t6] | 303 | 382 | 487 | 449 | 492
4 | AAUGGAGGCUGAAGGAGCGCCGCCAGUGAUGUUGGGAGUUAGAUACCAGUGAUGUUGGGCCGGCAGGUAGGUCGCGGUUUUUAUU [Exclusion Arginine B Gf 16] | 186 | 78.4 | 136 | 153 | 126
5 | AGGUCACAACUACAGUGAUGUUGUGGAGAGCAGGAUAUGCAGAAAUGCAGAAGGGCUCGCUCUCUAGUGACCGAUCAAAAGAUCA [Omei KL FMN A SS A v9] | 1360 | 311 | 669 | 545 | 532
6 | UGAUACCAGACGGCCGCCACUCCUGCAGUCAAAGACUGCUAAGGAAUAUUCGUCCAGUGAUGUUGGAGGACCGGGUCUGGUAUCU [TrypBX 12 #SwitchBubble #Palindromic #StaticStem] | 1370 | 991 | 1380 | 896 | 979
7 | GUUACGCAUGGAAGGAGCGCUCUCCGGUUGAUUGACACAGUGAUGUUGUGAUUCUACCGUAAGCAGGUAGGUCGCCAUGUGUAAC [Ex Arginine B K4 13] | 950 | 809 | 1210 | 1050 | 921
8 | AGCAGUGAUGUUGCAUUUAUAAAGACCGAUACCAGUAUCGAUAGAUACCCUUGGCAGCGGAUUUCCGCAACGACUAGGAAACUAG [Ex Theophylline A K4 13] | 404 | 423 | 399 | 466 | 270
9 | GUGACGCGGACGGCCGCCACUCCGGUGACCGCUCCGUGCCGCCCUGCGCGAGUGAUGUUCGCCAGGAGGACCGGGUCCGACUUUA [Soesente] | 107 | 101 | 106 | 89.4 | 96.3
10 | AGUACGGCAAACUUGCAACAAGCCGUACCACGAGGACCGGUACGGCCGCCACUCGAUAACUUGCAGUGAUGUUGCAAGUAAGAAU [(T)''-(K)'-(T)'-(T1)-(T2)-(K1)-(K2)_Design5] | 161 | 140 | 169 | 226 | 209
11 | AGAGUUGACGAAAAGUCAACUCUACGAGAAGGAGCGCACGAAAGUGCAGGUAGGUCGCUCAGUCCAGUGAUGUUGGAACAUAAAA [#OpenEnded 8] | 59.7 | 101 | 68.8 | 84.1 | 59.2
12 | AAGCAGUCUCUUGUAGUCAUCGAAGAUGAACGAGGACCGGUACGGCCGCCACUCGGAGUGAUGUUCCGAAGACUGCAAAAUAAAA [MatMod 17 - Jieux - Exclusion - Tryptophan A] | 581 | 422 | 1010 | 765 | 180
13 | CGGAUGUAGUGAUGUUAUAUUAGAUGUAGACGAGGACCGGUACGGCCGCCACUCGUGAUGGCUGCUAGCACGUUUCGAUGUUUGC [ExTryptoA.Cq] | 669 | 483 | 624 | 611 | 434
14 | UGGAUAUAGUGAUGUUAUAUAGAGAUGGAUACCAGUUAAGAGAAUAGCCCUUGGCAGCCGAAAGAAGUAUCAUUAGAGAAGAAUG [ExTheophyl.Ad] | 261 | 183 | 239 | 194 | 195
15 | CAGAUCACAGAGUGAUGUUCUGUGUCCGAAGGAGCGCGCUUCGGCGCAGGUAGGUCGCGGAUACAGUUGACGUACCAUCUAGACA [Arg A Ex t3c] | 446 | 383 | 583 | 485 | 507
16 | UGUCAUUGGUCGGCCGCCACUAGGACCGGGUAUAACCUAGUGAUGUUAGUAAAUACGGCCGCCACUAGGACCGGGACCGAUGACU [KL-SSTryp-B18 #DoubleAptamer] | 415 | 296 | 583 | 471 | 102
17 | GUCUGAUGCGUUGAUACCAGUCCUUCAGUGAUGUUGCAAGCGCGGCCUAUCAAGCAAUCCGACCCUUGGCAGCAAUAGGUCCGAA [theeternabot_exclusion_KL_Theo_B_9] | 892 | 568 | 850 | 872 | 661
18 | UGUCAUGGAAACAUGAACGUUAAAAUAAAUCGAGGACCGGUACGGCCGCCACUCGUAUAGCGGUCAGUGAUGUUGACUGUAAUAA [KL-SSTryp-A form2 sub10] | 101 | 121 | 110 | 116 | 94.3
19 | GAGAACUCUUACGAUACCAGCCGGAGUGAUGUUCCGCGCUUGGACGUAGUAACCCGCACCGGCCCUUGGCAGCGUGGAUCCUAUG [Bibiinor] | 91.1 | 81.2 | 86.1 | 86.8 | 80.5
20 | AGUGCACUGUCAGGAUAUAUACAGUGAUGUUGUGUAUGUCAGCAAGUCAAAGACUUGCUAUUUUGUGUAGAAGGGACUGUGUACA [whbob_Ex_FMNB__2th221] | 385 | 156 | 176 | 155 | 177
21 | AGACUACCUACACUGUCAAUAGACAGUGACUAGGAUAUGCUGAUAAGCAGAAGGAGUGAUGUUCCUGGUAGUCAAAUAAAAUAAU [FmnAX 12 #SwitchBubble #StaticStem #K4Early] | 498 | 295 | 311 | 323 | 278

Row | Sequence | apparent KD of K4 kissing-loop reporter (input ligand: FMN 200 uM) [nM] | apparent KD of K4 kissing-loop reporter (input ligand: arginine 13.2 mM) [nM] | apparent KD of K4 kissing-loop reporter (input ligand: none) [nM] | apparent KD of K4 kissing-loop reporter [1] [nM] | apparent KD of K4 kissing-loop reporter [2] [nM]
22 | UGAUAGGAGAGAAGGAGCGGGAGUGAUGUUCCCAAAGAUUGGUCUAGCAAAGCUGGACCCUCCCAGGUAGGUCGCUCUCCUAUCU [KL-XARG-B16] | 382 | 419 | 434 | 405 | 357
23 | AAAAUAAACCAGUGAUGUUGGUGUCUGGAUACCAGCGACGAAAGUCGCCCUUGGCAGCUACGGACGUACAAAAUAAGUACGUCCU [MatMod 8 - Jieux - Same State - Theophylline A] | 709 | 487 | 655 | 680 | 561
24 | UGAUACCAGACGGCCGCCACUAGACCAGUCAAAGACUGGAAGUGAUGUUUGAGGAGUGAUGUUCCUAGGACCGGGUCUGGUAUCU [TrypBX 3 #Palindromic #SwitchBubble #StaticStem] | 97.9 | 81.7 | 90.5 | 89 | 41.5
25 | CCAAUCUGUUACGAUACCAGUCAAAGAUAUUUGAUCAAUACCCUCACCGAGUGAUGUUCGGACCCUUGGCAGCGUCUGGGAUAGG [ceevmullin] | 228 | 267 | 266 | 281 | 193
26 | CCGGGCGGCCGAAGGAGCGGGCGGACCCGAGUGAUGUUCGGGUGGACCGUGAGGUCCGGUGCCCAGGUAGGUCGCGGUUCCGCCC [#2 Same State - Arginine B Attempt #5 (HarryS)] | 117 | 123 | 129 | 118 | 120
27 | UUAGUUGAAAGUGAUACCAGACAAGUUAAGAGAAGAAAUUAAGUUGGAGUGAUGUUCCAAGUCCCUUGGCAGCACAUUGUAAUUU [Same State Theophylline B GF12] | 101 | 211 | 129 | 256 | 126
28 | UGACUGGACUGAAGGAGCGAGCGAGACAAAGUCUCGGAAAUUCAGUGAUGUUGAUAUAUAACUCAGGUAGGUCGCAGUCUAGUCU [ArgBS 6 #SwitchBubble #StaticStem] | 350 | 411 | 459 | 363 | 335
29 | GCUAUGGUAGGAAGGAGCGCGGACGAAAUAUAUCGAGUGAUGUUCGAAUAAUUAAAUAAAACGCAGGUAGGUCGCCUACUAUAGC [Arginine B K4 25] | 116 | 114 | 110 | 120 | 97.6
30 | CGGCUCACGCAAGGAUAUCGCAGUGAGUACUCUGGAAGAAUAAAGCUAGUGAUGUUAGGUUAGAAGCGAGAAGGUGCGGCCGUAU [theeternabot_sameState_KL_FMN_B_30] | 126 | 96.5 | 128 | 197 | 137
31 | CUCGAGUGAUGUUCGAUUAUGUAUACAGAUACCAGUGAAUUUUAACACCCUUGGCAGCUGGUAGAAUCAUUUUAAUUUUAACUAG [JR_SSTheophyA_Sub021] | 201 | 256 | 221 | 268 | 162
32 | AGAUGACACCGAGGAUAUCCUAAUAUGGGUGAUGUUAGCGAUGUUGAAGGUGUAGUGAUGUUAUGCGGAGAAGGCGGUGUUGUUU [BDazzled - #21 - Exc. FMN B] | 104 | 103 | 216 | 139 | 132
33 | AUUUAAUGUAUAGAUUAUAUACAUAAUUCAGAGGAUAUGCAUAGAAGCAGAAGGCUGGUUGCAGUGAUGUUGCUUUUUUAAUUUA [JR_SSFMNA_Sub008] | 30.9 | 125 | 76.7 | 185 | 63.8
34 | UGUACCGAGUCAGGAUAUGGCGUCGAAAGACGAAUCCUAGUGAUGUUAGGGAUCUGCGAAAGCAGUCCAGAAGGGACUUGGUACU [FmnBS 26 #SwitchBubble #StaticStem #DoubleMagnetSystem] | 275 | 340 | 357 | 389 | 373
35 | CUGAUGCUGAUGCGGCGGCCGGUGGUCGUGCGAGGACCGGUACGGCCGCCACUCGCGCGAGUGAUGUUCGCGCGUCGUCGUCGUC [First Shot] | 120 | 91.4 | 114 | 76.9 | 117
36 | UGAUACCAGACGGCCGCCACUGGUGCAGUCAAAGACUGCUAAAACCAAAUCGUGGAGUGAUGUUCCAGGACCGGGUCUGGUAUCU [TrypBX 20 #SwitchBubble #Palindromic #StaticStem] | 451 | 423 | 452 | 462 | 674
37 | AGGUCCGAGCCUGUAAAGGCUCGGACCUGUUAGGAUAUGACGUUAUUCAGAAGGGAUGGGUGGAGUGAUGUUCCACCCGCAAGGG [#2 Same State - FMN A Attempt #5 (HarryS)] | 107 | 103 | 111 | 116 | 104
38 | UUCAGUGACAUACGAGUGAUGUUCGUAAUACGAGGACCGGUACGGCCGCCACUCGCACGUCGGCAGUUUGUUCAUGCAUCAGACU | 226 | 160 | 259 | 255 | 514
39 | CGAAGAGAGUGAUGUUCUCUAGGCAAAAGAAAGGAUAUAAUGUUUGUUAGAAGGUUCGGAAAAUGGAACGUCGGCCCGUACAACC [theeternabot_exclusion_KL_FMN_A_18] | 151 | 129 | 139 | 127 | 121
40 | AGUCCACUCUAAAGAGUGGACCUAAGGGAUACCAGUGAUGUUGGUCACCCUUGGCAGCCCACUGUCAUCGAUAAAGAUGGCAGGA | 128 | 112 | 116 | 119 | 117
41 | AUUAAUUUCAGAGGAUAUCGUAUUUAUAUUAUAUCUUUCCAUAUUUGCAGUGAUGUUGCAUUAAUUCGAGAAGGCUGAUUUAUAA [JR_Nu_ExcFMNB_Sub024] | 86.1 | 91 | 60.4 | 82.4 | 53.7
